In patent US20040063790A1, “Methods for inhibition of angiogenesis” (The Scripps Research Institute, priority 1996, published 2004):

B1: MMP-2: matrix metalloproteinase-2, intact protein (protein)
chain: APSPIIKFPGDSTPKTDKELAVQYLNKYYGCPKDNCNLFVLKDTLKKMQKFFGLPETGDLDQNTIETMKKPRCGNPDVANYNFFPRKPKWEKNHITYRIIGYTPDLDPETVDDAFARAFKVWSDVTPLRFNRINDGEADIMINFGRWEHGDGYPFDGKDGLLAHAFAPGPGIGGDSHFDDDELWTLGEGQVVRVKYGNADGEYCKFPFWFNGKEYNSCTDAGRNDGFLWCSTTKDFDADGKYGFCPHESLFTMGGNGDGQPCKFPFKFQGQSYDQCTTEGRTDGYRWCGTTEDYDRDKKYGFCPETAMSTVGGNSEGAPCVFPFIFLGNKYDSCTSAGRNDGKLWCASTSSYDDDRKWGFCPDQGYSLFLVAAHEFGHAMGLEHSEDPGALMAPIYTYTKNFRLSQDDIKGIQELYEVSPDVEPGPGPGPGPGPRPTLGPVTPELCKHDIVFDGVAQIRGEIFFFKDRFMWRTVNPRGKPTGPLLVATFWPDLPEKIDAVYESPQDEKAVFFAGNEYWVYTASNLDRGYPKKLTSLGLPPDVQRIDAAFNWGRNKKTYIFSGDRYWKYNEEKKKMELATPKFIADSWNGVPDNLDAVLGLTDSGYTYFFKDQYYLQMEDKSLKIVKIGKISSDWLGC
B2: CTMMP-2(2-4): GST fusion protein of chicken MMP-2 C-terminal residues 445-637 (protein)
chain: LCKHDIVFDGVAQIRGEIFFFKDRFMWRTVNPRGKPTGPLLVATFWPDLPEKIDAVYESPQDEKAVFFAGNEYWVYTASNLDRGYPKKLTSLGLPPDVQRIDAAFNWGRNKKTYIFSGDRYWKYNEEKKKMELATPKFIADSWNGVPDNLDAVLGLTDSGYTYFFKDQYYLQMEDKSLKIVKIGKISSDWLGC
modifications: left off: a dimerising Fc or GST

How the values were obtained:
αIIbβ3 = molecular target: T1, αIIbβ3 (Homo sapiens, UniProt P05106+P08514); assay: Solid phase receptor binding assay (iodinated MMP-2, labeled fusion proteins)
T1 construct: selected purified integrins were separately immobilized in Titertek microtiter wells

[1] = test system: αvβ3-expressing CS-1 cells; assay: Inhibition of cell attachment assay; assay type: cell-based, hamster
Method: As one means to determine integrin receptor specificity of the antagonists of this invention, inhibition of cell attachment assays were performed as described below.
Briefly, CS-1 hamster melanoma cells lacking expression of αvβ3 and αvβ5 were first transfected with an plasmid for expressing the […] as previously described by Filardo et al., J. Cell Biol., 130:441-450 (1995). Specificity of potential αvβ3 antagonists was determined by the ability to block the binding of αvβ3-expressing CS-1 cells to VN or laminin coated plates. As an example of a typical assay, the wells were first coated with 10 μg/ml substrate overnight. After rinsing and blocking with 1% heat-denatured BSA in PBS at room temperature for 30 minutes, peptide 85189 (SEQ ID NO: 15) over a concentration range of 0.0001 μM to 100 μM, was separately mixed with CS-1 cells for applying to wells with a cell number of 50, 000 cells/well. After a 10-15 minute incubation at 37° C., the solution containing the cells and peptides was discarded. The number of attached cells was then determined following staining with 1% crystal violet. Cell associated crystal violet was eluted by the addition of 100 microliters (μl) of 10% acetic acid. Cell adhesion was quantified by measuring the optical density of the eluted crystal violet at a wave length of 600 nm.

αvβ3 = molecular target: T2, αvβ3 (Homo sapiens, UniProt P05106+P06756); assay: Solid phase receptor binding assay (iodinated MMP-2, labeled fusion proteins)
T2 construct: selected purified integrins were separately immobilized in Titertek microtiter wells
T2 sequence (P06756 31-889 limits assumed): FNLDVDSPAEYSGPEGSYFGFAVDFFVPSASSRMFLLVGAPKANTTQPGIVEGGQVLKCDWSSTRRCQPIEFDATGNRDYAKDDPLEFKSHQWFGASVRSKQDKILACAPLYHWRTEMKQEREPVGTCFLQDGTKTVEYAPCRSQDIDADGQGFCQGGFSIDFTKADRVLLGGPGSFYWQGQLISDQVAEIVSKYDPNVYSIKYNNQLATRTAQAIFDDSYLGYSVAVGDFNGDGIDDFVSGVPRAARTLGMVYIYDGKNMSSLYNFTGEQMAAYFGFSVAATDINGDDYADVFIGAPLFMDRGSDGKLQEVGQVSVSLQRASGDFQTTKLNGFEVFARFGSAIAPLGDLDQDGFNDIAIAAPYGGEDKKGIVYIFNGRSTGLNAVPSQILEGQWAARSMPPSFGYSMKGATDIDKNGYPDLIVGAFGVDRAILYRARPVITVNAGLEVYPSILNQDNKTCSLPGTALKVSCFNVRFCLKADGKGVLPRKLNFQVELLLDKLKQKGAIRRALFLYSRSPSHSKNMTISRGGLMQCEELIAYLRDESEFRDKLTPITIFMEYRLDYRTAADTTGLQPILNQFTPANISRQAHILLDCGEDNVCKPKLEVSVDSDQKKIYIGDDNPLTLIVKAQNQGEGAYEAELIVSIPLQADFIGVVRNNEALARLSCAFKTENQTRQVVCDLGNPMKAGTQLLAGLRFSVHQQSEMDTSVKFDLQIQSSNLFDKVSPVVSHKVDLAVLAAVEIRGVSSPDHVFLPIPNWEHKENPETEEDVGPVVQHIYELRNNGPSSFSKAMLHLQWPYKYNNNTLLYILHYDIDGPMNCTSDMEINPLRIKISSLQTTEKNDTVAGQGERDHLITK
T2 sequence (P06756 891-1048 partner limits assumed): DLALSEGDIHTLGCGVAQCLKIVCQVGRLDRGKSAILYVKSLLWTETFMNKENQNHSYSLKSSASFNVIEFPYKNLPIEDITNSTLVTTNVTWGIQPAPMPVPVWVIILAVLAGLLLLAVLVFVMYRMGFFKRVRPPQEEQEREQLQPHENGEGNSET
T2 sequence (P05106 27-788): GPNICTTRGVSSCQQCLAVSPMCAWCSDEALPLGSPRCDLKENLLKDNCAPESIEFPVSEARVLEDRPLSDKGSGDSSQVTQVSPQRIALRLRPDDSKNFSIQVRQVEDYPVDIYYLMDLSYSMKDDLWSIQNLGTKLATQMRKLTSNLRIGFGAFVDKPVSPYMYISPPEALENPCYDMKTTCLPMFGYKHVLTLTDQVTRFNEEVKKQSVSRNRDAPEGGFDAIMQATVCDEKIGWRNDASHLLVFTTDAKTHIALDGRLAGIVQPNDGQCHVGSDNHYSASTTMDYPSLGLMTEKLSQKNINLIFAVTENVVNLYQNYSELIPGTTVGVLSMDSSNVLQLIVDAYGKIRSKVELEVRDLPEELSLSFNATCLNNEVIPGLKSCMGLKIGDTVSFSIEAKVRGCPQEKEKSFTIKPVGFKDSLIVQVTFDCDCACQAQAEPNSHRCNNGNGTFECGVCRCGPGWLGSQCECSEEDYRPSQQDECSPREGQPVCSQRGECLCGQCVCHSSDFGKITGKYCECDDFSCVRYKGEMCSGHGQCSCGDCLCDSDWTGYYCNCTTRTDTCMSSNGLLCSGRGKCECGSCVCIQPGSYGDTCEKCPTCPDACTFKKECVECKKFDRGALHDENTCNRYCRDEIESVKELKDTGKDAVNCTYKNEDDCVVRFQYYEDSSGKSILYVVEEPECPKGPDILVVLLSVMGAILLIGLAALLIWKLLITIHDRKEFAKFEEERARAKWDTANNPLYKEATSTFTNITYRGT
Method: In addition, the ability of peptides to inhibit the binding of either MMP-2 or VN to immobilized αvβ3 was assessed with peptides 69601 (SEQ ID NO: 6) and 66203 (SEQ ID NO: 5).
Specificity of receptor interaction with MMP-2-derived antagonists was confirmed with binding and inhibition of binding solid phase assays. […] In addition, the binding of labeled GST2-4 was competed by unlabeled GST2-4.

CS-1 tumor (β3-negative) = assay: CS-1 tumor growth in CAM; assay type: in vivo, chick; conditions: 50 μg intravenously after 24 hours of tumor growth; mass after 6 days; versus CTMMP-2(10-1) or PBS
Method: A CS-1 tumor (β3-negative) was prepared in a CAM as described above. After 24 hours of tumor growth, a composition of MMP-2 fragment, designated CTMMP-2(2-4) and prepared as described in Example 2A, was administered intraveneously at 50 μg fragment in 100 μl of PBS. After 6 days, the tumor was evaluated for mass. Tumors treated with CTMMP-2(2-4) were reduced in growth rate by about 50% when compared to the growth rate of control tumors treated with CTMMP-2(10-1) or with PBS control.

[2] = test system: bFGF-induced angiogenesis; assay: CAM assay, growth factor-induced angiogenesis, intravenous application; assay type: in vivo, chick; conditions: 50 μg fusion protein; after 48 and 72 hours
Method: J. Pathol., 79:597 (1975). CAMs were prepared from chick embryos for subsequent induction of angiogenesis and inhibition thereof as described in Examples 4 and 5, respectively. Ten day old chick embryos were obtained from McIntyre Poultry (Lakeside, Calif.) and incubated at 37° C. with 60% humidity. A small hole was made through the shell at the end of the egg directly over the air sac with the use of a small crafts drill (Dremel, Division of Emerson Electric Co. Racine Wis.). A second hole was drilled on the broad side of the egg in a region devoid of embryonic blood vessels determined previously by candling the egg. […] A 1.0 centimeter (cm)×1.0 cm square window was cut through the shell over the dropped CAM with the use of a small model grinding wheel (Dremel). The small window allowed direct access to the underlying CAM.
Angiogenesis was induced by placing a 5 millimeter (mm)×5 mm Whatman filter disk (Whatman Filter paper No.1) saturated with Hanks Balanced Salt Solution (HBSS, GIBCO, Grand Island, N.Y.) or HBSS containing 150 nanograms/milliliter (ng/ml) recombinant basic fibroblast growth factor (bFGF) (Genzyme, Cambridge, Mass.) on the CAM of a 10-day chick embryo in a region devoid of blood vessels and the windows were latter sealed with tape. In other assays, 125 ng/ml bFGF was also effective at inducing blood vessel growth. For assays where inhibition of angiogenesis ws evaluated with intravenous injections of antagonists, angiogenesis was first induced with 1-2 μg/ml bFGF in fibroblast growth medium. Angiogenesis was monitored by photomicroscopy after 72 hours. CAMs were snap frozen, and 6 um cryostat sections were fixed with acetone and stained by immunofluorescence as described in Example 3C with 10 μg/ml of either anti-β1 monoclonal antibody CSAT or LM609.
For CAM preparations in which angiogenesis was induced with 1-2 μg/ml bFGF as previously described, synthetic peptides 69601 (control) and 66203 (SEQ ID NO: 5) were separately intravenously injected into CAM preparations 18 hours after bFGF induction of angiogenesis. The preparations were maintained for an additional 36-40 hours after which time the number of branch points were determined as previously described.
In other assays, peptide 85189 (SEQ ID NO: 15) was evaluated for inhibiting bFGF-induced angiogenesis in the CAM assay over a dosage range of 10 μg/embryo to 300 μg/embryo. The assay was performed as previously described.
In still further assays, peptide 85189 was compared to peptides 69601 and 66203 for anti-angiogenesis activity. The assay was performed as described above with the exception that 50 μg peptide were used.
The effectiveness of the different salt formulations of peptide 85189 was also evaluated in similar bFGF-induced CAM assays. The peptides were used at 100 μg/embryo. […] Untreated CAMs, labeled as “no cytokine” had approximately […] as many branch points as that seen with bFGF treatment, respectively 70 versus 190.
With the above-described protocol, the effect of MMP-2 fusion proteins, CTMMP-2(2-4), also referred to as CTMMP-2(445-467) and CTMMP-2(10-1), also referred to as CTMMP-2(274-637) was also evaluated. The assay was performed as previously described with the exception that 50 μg of fusion protein was administered to the bFGF-treated embryos. The effect of fusion protein treatment was assessed at 24 hours, 48 hours and 72 hours.
The 10 day old CAM preparation was used as previously described in Example 5A. Twenty-four hours after bFGF-induced angiogenesis was initiated, the organic peptidomimetics referred to as compounds 16 (81218), 17 (87292) and 18 (87293) were separately intravenously injected into the CAM preparation in a volume of 100 μl at a concentration of 1 mg/ml (100 μg/embryo) in 20% tetraglycol-PBS at pH 7.0. In parallel assays, compounds 7 (96112), 9 (99799), 10 (96229), 12 (112854) and 14 (96113) were similarly evaluated. […]

Molecule | bound iodinated MMP-2 on immobilized αIIbβ3 (αIIbβ3) | inhibition of β3-expressing CS-1 cell adhesion to laminin [1] | inhibition of β3-expressing CS-1 cell adhesion to vitronectin [1] | bound iodinated MMP-2 on immobilized αvβ3 (αvβ3) | reduction in tumor growth rate (CS-1 tumor (β3-negative)) | inhibition of bFGF-induced angiogenesis by fusion protein [2] | competition of labeled GST2-4 binding by unlabeled protein (αvβ3) | inhibition of binding of iodinated MMP-2 to αvβ3 (αvβ3; FIG. 8) | binding of 125I-labeled fusion protein to αvβ3 (αvβ3; FIG. 9)
B1 | approximately 10 CPM | but not laminin | inhibited | 300 cpm | – | – | – | – | –
B2 | – | but not laminin | inhibited | – | about 50% | almost completely inhibited | competed | inhibited the binding of iodinated MMP-2 | bound
